From article PMC9721421, “DMSO-tolerant ornithine decarboxylase (ODC) tandem assay optimised for high-throughput screening” (Journal of Enzyme Inhibition and Medicinal Chemistry, 2022)

Target: the molecule itself
Assay: SEC; Superose 6 Increase 10/300 GL, 4 °C, 0.5 mL/min, running buffer 50 mM potassium pyrophosphate, 500 mM NaCl, 5% glycerol, 0.1% Tween 20, pH 7.5; elution compared with molecular weight standards; fractions checked by ODC tandem assay, Coomassie staining and western blot

B1: C-terminal Twin-Strep-tagged recombinant human ornithine decarboxylase (ODC) (enzyme, UniProt P11926 1-461, looked up)
chain: MNNFGNEEFDCHFLDEGFTAKDILDQKINEVSSSDDKDAFYVADLGDILKKHLRWLKALPRVTPFYAVKCNDSKAIVKTLAATGTGFDCASKTEIQLVQSLGVPPERIIYANPCKQVSQIKYAANNGVQMMTFDSEVELMKVARAHPKAKLVLRIATDDSKAVCRLSVKFGATLRTSRLLLERAKELNIDVVGVSFHVGSGCTDPETFVQAISDARCVFDMGAEVGFSMYLLDIGGGFPGSEDVKLKFEEITGVINPALDKYFPSDSGVRIIAEPGRYYVASAFTLAVNIIAKKIVLKEQTGSDDEDESSEQTFMYYVNDGVYGSFNCILYDHAHVKPLLQKRPKPDEKYYSSSIWGPTCDGLDRIVERCDLPEMHVGDWMLFENMGAYTVAAASTFNGFQRPTIYYVMSGPAWQLMQQFQNPDFPPEVEEQDASTLPVSCAWESGMKRHRAACASASINV
notes: Cloning sites may add a few linker residues between ODC and the 3C site; also called human ODC; ODC1; source: Expi293F cells, transiently transfected, purified (Strep-Tactin chromatography, size-exclusion chromatography); not shown: Avi tag (preceded by an HRV 3C protease site), C-terminal, kept; Twin-Strep, C-terminal, kept
stoichiometry N: 2
